We go through three molecules from article PMC5373596, “Metal-dependent SpoIIE oligomerization stabilizes FtsZ during asymmetric division in Bacillus subtilis” (PLoS ONE, 2017).

The labels stand for the following.
B1: MBP-strep-tag-SpoIIEcyt fusion protein (cytoplasmic part of SpoIIE, domains II and III) (domain or fragment, B. subtilis 168, UniProt P37475 326-827, looked up)
chain: RKVARYIPGTVEHLQEQQQYARKIRDVTAQKVDQFSNVFHALSESFATFYQASDEQTDDSEVDLFLSKITEHSCQTCYKKNRCWVQNFDKTYDLMKQVMLETEEKEYASNRRLKKEFQQYCSKSKQVEELIEDELAHHHAHLTLKKKVQDSRRLVAEQLLGVSEVMADFSREIKREREQHFLQEEQIIEALQHFGIEIQHVEIYSLEQGNIDIEMTIPFSGHGESEKIIAPMLSDILEEQILVKAEQHSPHPNGYSHVAFGSTKSYRVSTGAAHAAKGGGLVSGDSYSMMELGARKYAAAISDGMGNGARAHFESNETIKLLEKILESGIDEKIAIKTINSILSLRTTDEIYSTLDLSIIDLQDASCKFLKVGSTPSFIKRGDQVMKVQASNLPIGIINEFDVEVVSEQLKAGDLLIMMSDGIFEGPKHVENHDLWMKRKMKGLKTNDPQEIADLLMEEVIRTRSGQIEDDMTVVVVRIDHNTPKWASIPVPAIFQNKQEIS
notes: SpoIIE of Bacillus subtilis 168, domains II and III (cytoplasmic part), amino acids 326-827; called a 501 residue fragment; Order on the chain: MBP (from pMalC2x), short strep-tag, SpoIIE 326-827; Co-purifies with about 2 Fe per protein; also called ms-SpoIIEcyt; source: E. coli BL21-RIL, purified (amylose resin, eluted with maltose); not shown: MBP, N-terminal, kept; strep-tag, N-terminal, kept
B2: strep-tagged-SpoIIEcyt (cytoplasmic part of SpoIIE, MBP removed) (domain or fragment, B. subtilis 168, UniProt P37475 326-827, looked up)
chain: B1 chain
notes: SpoIIE of Bacillus subtilis 168, domains II and III (cytoplasmic part), amino acids 326-827; called a 501 residue fragment; also called s-SpoIIEcyt; strep-SpoIIEcyt; not shown: MBP, N-terminal, cleaved; strep-tag, N-terminal, kept
B3: FtsZ (natural protein, B. subtilis, UniProt P17865 1-382, looked up)
chain: MLEFETNIDGLASIKVIGVGGGGNNAVNRMIENEVQGVEYIAVNTDAQALNLSKAEVKMQIGAKLTRGLGAGANPEVGKKAAEESKEQIEEALKGADMVFVTAGMGGGTGTGAAPVIAQIAKDLGALTVGVVTRPFTFEGRKRQLQAAGGISAMKEAVDTLIVIPNDRILEIVDKNTPMLEAFREADNVLRQGVQGISDLIATPGLINLDFADVKTIMSNKGSALMGIGIATGENRAAEAAKKAISSPLLEAAIDGAQGVLMNITGGTNLSLYEVQEAADIVASASDQDVNMIFGSVINENLKDEIVVTVIATGFIEQEKDVTKPQRPSLNQSIKTHNQSVPKREPKREEPQQQNTVSRHTSQPADDTLDIPTFLRNRNKRG
notes: Cell division protein FtsZ of Bacillus subtilis; source: purified as described [25], > 95% purity

Data set [1] concerns the molecule itself. Briefly: co-sedimentation; 10 μM ms-SpoIIEcyt in 50 mM MES/NaOH pH 6.5, 50 mM KCl; after 1 mM EDTA, 5 mM MnCl2 added for 30 min; spun at 186,000 x g, supernatant and pellet on SDS-PAGE.
Data set [2] concerns the molecule itself. Briefly: transmission electron microscopy; 10 μM FtsZ with or without 1.5 μM s-SpoIIEcyt, or 1.5 μM s-SpoIIEcyt alone with 10 mM MnCl2, in 50 mM Tris/HCl pH 7.5, 300 mM KCl with 1 mM EDTA or 10 mM MgCl2 or 10 mM MnCl2; GTP or GDP; samples taken after 30 min at 30°C.
The target of data set [3] is B2. Put plainly: 90° light scattering; 10 μM FtsZ and/or 1.5 μM s-SpoIIEcyt in 50 mM Tris/HCl pH 7.5, 300 mM KCl, 10 mM MgCl2; 2 mM GTP or GDP added after 90 s; 30°C; controls of FtsZ alone with Mn2+ or EDTA. To be noted: both partners purified.
Data set [4] deals with the molecule itself. Described as above.

B1: the binding result in data set [1] was “binds”.

With B2, the binding result in data set [2] is “binds”.

In the case of B3, the binding result in data set [3] and in data set [4] was “binds” each time.
